FireProtDB
Values joined by “and” are separate entries in the source; they are usually repeats but may differ in a detail not shown here. Equal entries are not always repeated.

Settings: whole UniProt chain shown
[1] = Bacillus amyloliquefaciens, pH 7, 25 °C, GdnHCl, CD, phosphate 20 mM
[2] = Bacillus amyloliquefaciens, pH 8, 25 °C, Urea, Fluorescence, Tris-HCl 50 mM, reversible: yes
[3] = Bacillus amyloliquefaciens, pH 8, Thermal, CD, Sodium phosphate 2 mM, reversible: yes
[4] = Bacillus amyloliquefaciens, pH 8, Thermal, DSC, Sodium phosphate 10 mM, reversible: yes
[5] = Bacillus amyloliquefaciens, pH 9.5, Thermal, DSC, Sodium phosphate 10 mM, reversible: yes
[6] = Bos taurus, pH 5, Thermal, CD, Tris-acetate 0.01 M, reversible: yes
[7] = Bos taurus, pH 8.4, Thermal, CD, Tris-acetate 0.01 M, reversible: no
[8] = Aliivibrio salmonicida (strain LFI1238), pH 8, Thermal, DSC, HEPES, MgCl2 NaCl 5 mM 0.175, reversible: no
[9] = Aliivibrio salmonicida (strain LFI1238), pH 8, Thermal, DSC, HEPES, MgCl2 NaCl 5 mM 1, reversible: no
[10] = Aliivibrio salmonicida (strain LFI1238), pH 8, Thermal, DSC, Tris-HCl 50mM, NaCl 0.175 M
[11] = Aliivibrio salmonicida (strain LFI1238), pH 8, Thermal, DSC, Tris-HCl 50mM, NaCl 1 M
[12] = Bacillus amyloliquefaciens, pH 6, 25 °C, GdnHCl, Fluorescence, MES 50 mM, CaCl2 5 mM, reversible: no
[13] = Aquifex aeolicus (strain VF5), pH 7, 20 °C, GdnHCl, Fluorescence, Sodium phosphate sodium chloride 25 mM 100 mM
[14] = Bacillus subtilis (strain 168), pH 6, 27 °C, Thermal, CD, sodium phosphate 50 mM, reversible: yes
[15] = Bacillus amyloliquefaciens, pH 7.5, Thermal, fluorescence, Pipes 10 mM, transition: 2

B1: Barstar wild type, P11540 (protein)
chain: MKKAVINGEQIRSISDLHQTLKKELALPEYYGENLDALWDCLTGWVEYPLVLEWRQFEQSKQLTENGAESVLQVFREAKAEGCDITIILS
With B1 the “denaturant midpoint (higher = more stable)” value (“denaturant midpoint” for short) [1] was 1.92 M, the unfolding free energy [1] was 19.2 kJ/mol and the unfolding free energy (Bacillus amyloliquefaciens, pH 8, 10 °C, Urea, CD, Tris Cl 50 mM, KCl 100 mM) was 12.6 kJ/mol. For the same protein, the denaturant m value [2] was 1.25 kcal/mol/M, the “denaturant midpoint” value [2] was 3.87 M and the unfolding free energy [2] was 20.3 kJ/mol. The Tm [3] was 70 °C, the “heat capacity change of unfolding” value [3] was 1.49 kcal/mol/K and the “unfolding enthalpy (van 't Hoff)” value [3] was 292 kJ/mol. The Tm [4] was 69.7 °C, the “heat capacity change of unfolding” value [4] was 1.41 kcal/mol/K and the “unfolding enthalpy (calorimetric)” value [4] was 178 kJ/mol. The “unfolding enthalpy (van 't Hoff)” value [4] was 251 kJ/mol, the Tm [5] was 68.7 °C and the “heat capacity change of unfolding” value [5] was 1.36 kcal/mol/K. The “unfolding enthalpy (calorimetric)” value [5] was 172 kJ/mol and the “unfolding enthalpy (van 't Hoff)” value [5] was 235 kJ/mol.

B2: Seminal ribonuclease wild type, P00669 (protein)
chain: MALKSLVVLPLLVLVLLLVRVQPSLGKESAAAKFERQHMDSGNSPSSSSNYCNLMMCCRKMTQGKCKPVNTFVHESLADVKAVCSQKKVTCKNGQTNCYQSKSTMRITDCRETGSSKYPNCAYKTTQVEKHIIVACGGKPSVPVHFDASV
With B2 the Tm [6] was 61.6 °C, the “unfolding enthalpy (van 't Hoff)” value [6] was 633 kJ/mol and the Tm [7] was 65.2 °C. For the same protein, the “unfolding enthalpy (van 't Hoff)” value [7] was 833 kJ/mol.

B3: wild type, Q2XSL7 (protein)
chain: MKLIRLVISLIAVSFTVNVMAAPPSSFSKAKKEAVKIYLDYPTSFYCGCDITWKNKKKGIPELESCGYQVRKQEKRASRIEWEHVVPAWQFGHQRQCWQKGGRKNCTRNDKQFKSMEADLHNLVPAIGEVNGDRSNFRFSQWNGSKGAFYGQCAFKVDFKGRVAEPPAQSRGAIARTYLYMNNEYKFNLSKAQRQLMEAWNKQYPVSTWECTRDERIAKIQGNHNQFVYKACTK
With B3 the Tm [8] was 41.8 °C, the “unfolding enthalpy (calorimetric)” value [8] was 268 kJ/mol and the Tm [9] was 51.9 °C. The “unfolding enthalpy (calorimetric)” value [9] was 371 kJ/mol, the Tm [10] was 41.8 °C and the “unfolding enthalpy (calorimetric)” value [10] was 268 kJ/mol. For the same protein, the Tm [11] was 51.9 °C and the “unfolding enthalpy (calorimetric)” value [11] was 371 kJ/mol.

B4: Beta-glucanase wild type, P07980 (protein)
chain: MKRVLLILVTGLFMSLCGITSSVSAQTGGSFFEPFNSYNSGLWQKADGYSNGDMFNCTWRANNVSMTSLGEMRLALTSPSYNKFDCGENRSVQTYGYGLYEVRMKPAKNTGIVSSFFTYTGPTEGTPWDEIDIEFLGKDTTKVQFNYYTNGAGNHEKFADLGFDAANAYHTYAFDWQPNSIKWYVDGQLKHTATTQIPAAPGKIMMNLWNGTGVDDWLGSYNGVNPIYAHYDWMRYRKK
For B4, the “denaturant midpoint” value [12] was 2.73 M and 2.84 M and the unfolding free energy [12] was 54 kJ/mol and 20.8 kJ/mol.

B5: wild type, O66926 (protein)
chain: MKKFLIPFLTFLGFTFSSELIPCKVVRVVDGDTFRCVPEGKSRFIKVRLMGIDTLETNNMKKGMGQAKWFYGGIRTVKEFGKKAKEFSKRLIDKKVVYLELPVRKMDNNGRYLAYVWLDEYRNKMLNLLLVKEGLAFVFIIPPQVKYLKELGEAQEEAYKDRRGFWKYFKGE
For B5, the denaturant m value [13] was 1.02 kcal/mol/M, the “denaturant midpoint” value [13] was 0.42 M and the unfolding free energy [13] was 11.7 kJ/mol.

B6: Chemotaxis protein CheY wild type, P24072 (protein)
chain: MAHRILIVDDAAFMRMMIKDILVKNGFEVVAEAENGAQAVEKYKEHSPDLVTMDITMPEMDGITALKEIKQIDAQARIIMCSAMGQQSMVIDAIQAGAKDFIVKPFQADRVLEAINKTLN
With B6 the “heat capacity change of unfolding” value [14] was 2.34 kcal/mol/K, the unfolding free energy [14] was 13.1 kJ/mol and the Tm (Bacillus subtilis (strain 168), pH 6, Thermal, CD, sodium phosphate 50 mM, reversible: yes) was 54.9 °C.

B7: Subtilisin BPN' wild type, P00782 (protein)
chain: MRGKKVWISLLFALALIFTMAFGSTSSAQAAGKSNGEKKYIVGFKQTMSTMSAAKKKDVISEKGGKVQKQFKYVDAASATLNEKAVKELKKDPSVAYVEEDHVAHAYAQSVPYGVSQIKAPALHSQGYTGSNVKVAVIDSGIDSSHPDLKVAGGASMVPSETNPFQDNNSHGTHVAGTVAALNNSIGVLGVAPSASLYAVKVLGADGSGQYSWIINGIEWAIANNMDVINMSLGGPSGSAALKAAVDKAVASGVVVVAAAGNEGTSGSSSTVGYPGKYPSVIAVGAVDSSNQRASFSSVGPELDVMAPGVSIQSTLPGNKYGAYNGTSMASPHVAGAAALILSKHPNWTNTQVRSSLENTTTKLGDSFYYGKGLINVQAAAQ
In the case of B7, the unfolding free energy (Bacillus amyloliquefaciens, pH 5, 20 °C, Thermal, DSC, Sodium acetate 100 mM, reversible: yes) is reported as 8.79 kJ/mol, the Tm (Bacillus amyloliquefaciens, pH 7, Thermal, CD, KPO4 100 mM) is reported as 65 °C and the Tm [15] is reported as 53.9 °C and 56.8 °C. For the same protein, the “unfolding enthalpy (calorimetric)” value [15] was 233 kJ/mol and 237 kJ/mol, the Tm (Bacillus amyloliquefaciens, pH 8, Thermal, DSC, Tris-HCl 50 mM, CaCl2 10 mM, reversible: no) was 78.3 °C and the Tm (Bacillus amyloliquefaciens, pH 8, Thermal, DSC, Tris-HCl 50 mM, KCl 50 mM) was 58.9 °C.
